Results as given in publication PMC6853222.

How the values were obtained:
[1] = target: GII.3 huNoV TV24 P protein (GII.3 human norovirus TV24); experiment: crystal structure; TV24 P protein, native and with A tetrasaccharide; hanging drop vapor diffusion, 9.6% PEG 3350, 160 mM ammonium citrate tribasic pH 7.0, 20 mM tri-sodium citrate pH 5.6, 500 mM 1,6-hexanediol, 20 °C; homodimers in the asymmetric unit
[2] = target: GII.11 porNoV VA34 P protein (GII.11 porcine norovirus VA34); experiment: crystal structure; VA34 P protein, native; hanging drop vapor diffusion, 100 mM Tris pH 8.0, 16% PEG 3350, 6% tacsimate pH 8.0, 20 °C

Row | Substance | stoichiometry N [1] | stoichiometry N [2]
1 | GII.3 huNoV TV24 P protein (domain or fragment) | 2 | –
2 | GII.11 porNoV VA34 P protein (domain or fragment) | – | 2
